Source: publication PMC9284671 (Structure (London, England : 1993), 2022)

Experiments:
Assay in all cases: ELISA
[1] = target: WIV1 S2P (pre-fusion-stabilized soluble spike) (Bat SARS-like coronavirus WIV1, UniProt U5WI05, stabilised)
[2] = target: SARS-CoV S2P (pre-fusion-stabilized soluble spike) (SARS-CoV Urbani, UniProt P59594, stabilised)
[3] = target: RaTG13 S2P (pre-fusion-stabilized soluble spike) (Bat coronavirus RaTG13 (GenBank …, UniProt A0ABF7PLN6, stabilised))
[4] = target: MERS-CoV S2P (pre-fusion-stabilized soluble spike) (MERS-CoV EMC/2012 (GenBank AFS88936), UniProt K0BRG7, stabilised)
[5] = target: SHC014 S2P (pre-fusion-stabilized soluble spike) (Bat SARS-like coronavirus RsSHC014, UniProt U5WLK5, stabilised)

Measured: binding result

B1: WS6 (monoclonal antibody, IgG) (antibody, V domains shown)
VH: EVQFQQSGTVLARPGASVKMSCKASGYTFTNYWIHWVKQRPGQGLEYIGGTYPGNGDTTYNQKFKGKAKVTAVTPTSTAYMDLSSLTNEDSAVYYCTRTGSYFDYWGQGTTLTVSS
VL: QIVLTQSPAIMSASPGEKVTISCSATSSVSYIYWYQQRPGSSPKPWIYRTSNLASGVPVRFSGSGSGTSYSLTISNMEAEDAATYYCQQYQSYPPTFGAGTKLELK
binds: all assays above
